Results as given in patent US20260193335A1 (ZOETIS SERVICES, published 2026).
Substitutions are numbered along the chain they refer to. Names may count otherwise.

T1: NGF (target of felinized anti-NGF antibodies mAb2 and mAb3)
T1 chain: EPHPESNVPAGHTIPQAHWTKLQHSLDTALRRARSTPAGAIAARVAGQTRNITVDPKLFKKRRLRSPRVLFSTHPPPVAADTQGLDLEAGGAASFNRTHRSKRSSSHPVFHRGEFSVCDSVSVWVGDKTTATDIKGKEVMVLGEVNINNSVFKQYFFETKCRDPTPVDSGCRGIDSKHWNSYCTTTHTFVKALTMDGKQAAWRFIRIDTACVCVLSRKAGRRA

B1: mAb3 (felinized anti-NGF antibody ZTS-768) WT, feline IgG1a (antibody)
heavy: DVQLVESGGDLVKPGGSLRLTCVASGFTYSNYWMHWVRQAPGKGLQWVARIDPYGGGTKHNEKFKRRFTISRDNAKNTLYLQMNSLKTEDTATYYCVRSGYDYYFDVWGQGTLVTVSSASTTAPSVFPLAPSCGTTSGATVALACLVLGYFPEPVTVSWNSGALTSGVHTFPAVLQASGLYSLSSMVTVPSSRWLSDTFTCNVAHPPSNTKVDKTVRKTDHPPGPKPCDCPKCPPPEMLGGPSIFIFPPKPKDTLSISRTPEVTCLVVDLGPDDSDVQITWFVDNTQVYTAKTSPREEQFNSTYRVVSVLPILHQDWLKGKEFKCKVNSKSLPSPIERTISKAKGQPHEPQVYVLPPAQEELSRNKVSVTCLIKSFHPPDIAVEWEITGQPEPENNYRTTPPQLDSDGTYFVYSKLSVDRSHWQRGNTYTCSVSHEALHSHHTQKSLTQSPGK
light: EIQMTQSPSSLSASPGDRVTITCRASENIYSFLAWYQQKPGKVPKLLIYNANTLAEGVPSRFSGSGSGTDFTLTISSLEPEDAATYYCQHHFGTPFTFGSGTKLEIKRSDAQPSVFLFQPSLDELHTGSASIVCILNDFYPKEVNVKWKVDGVVQNKGIQESTTEQNSKDSTYSLSSTLTMSSTEYQSHEKFSCEVTHKSLASTLVKSFQRSECQRE
notes: The same holds for all IgG1a variants of mAb3; also called mAb3 WT; mAb3 ID No. 88
B2: mAb3 (felinized anti-NGF antibody ZTS-768) S434H, feline IgG1a (antibody)
heavy: B1 heavy with S440H
light: B1 light
notes: also called mAb3 S434H; mAb3 ID No. 00

Tests used:
[1] = target: T1, NGF (target of felinized anti-NGF …); test: cell-based or functional assay
[2] = target: T1, NGF (target of felinized anti-NGF …); test: SPR Biacore T200, target amine-coupled, 15 C
Experimental: Affinity for each mAb was assessed by Biacore and the IC50 was determined via a suitable cell based potency assay.
Flow cell 1 was used as an internal reference to correct running buffer effects. Antibody binding was measured at 15° C. with a contact time of 250 s and flow rate of 30 μl/min. The dissociation period was 300 s. Regeneration was performed with regeneration buffers (10 mM Glycine pH1.5 and 10 mM NaOH) and flow rate at 20 μl/min for 60 s each. Running/dilution buffer (1×HBS-EP, GE Healthcare, BR-1006-69, 10× including 100 mM HEPES, 150 mM NaCl, 30 mM EDTA and 0.5% v/v surfactant P20, pH7.4, 1:10 in filtered MQ H2O) was used as negative control at the same assay format.
Data were analyzed with Biacore T200 Evaluation software by using the method of double referencing. The resulting curve was fitted with the 1:1 binding model. No differences in binding affinities or IC50 were observed between wild-type and 5434 and 5428 mutant IgGs (Table 1).

[3] = target: T2, Feline FcRn (complex of FcRn-α subunit and β-microglobulin, C-terminal His tag) (feline, UniProt A0ABI7ZNY9 23-296; Q5MGS7 21-118); test: SPR Biacore, FcRn amine-coupled on CM5, pH 6; pH 6; Table 2 run (FcRn amine-coupled on CM5)
T2 construct: treated here as one molecule
Experimental: (§1) Feline FcRn was isolated, prepared and mutant Fc IgGs were assayed against feline FcRn according to Strietzelg et. al. Standard RACE PCR was used to amplify feline FcRn-α subunit and β-microglobulin. FcRn-α subunit and β-microglobulin were co-transfected into HEK 293 cells and the FcRn complex was purified by IMAC affinity purification via the c-terminal His tag. KD's were measured by Biacore 3000 or Biacore T200 (GE Healthcare, Pittsburgh, PA, USA) using a CM5 sensor chip.
(§2) FcRn was immobilized on the surface of the sensor using the standard amine immobilization method to reach the desired surface density. HBS-EP was used as the immobilization running buffer and 10 mM MES; 150 mM NaCl; 0.005% Tween20; 0.5 mg/mL BSA; pH6 and pH7.2 and PBS; 0.005% Tween20; 0.5 mg/mL BSA; pH7.4 were used for method running buffers and titrations. Fc mutant IgGs were flowed over receptor surfaces and affinity was determined using Scrubber2 software analysis (BioLogic Software Pty, Ltd., Campbell, Australia) or T200 evaluation software (Table 2). Blank runs containing buffer only were subtracted out from all runs. Flow cells were regenerated using 50 mM Tris pH8. Runs were performed at 15° C.

[4] = target: T2, Feline FcRn (complex of FcRn-α subunit …); test: SPR Biacore, biotin-FcRn on SA chip, pH 6; pH 6; Table 5A run (biotin-FcRn on SA chip), ID 88
Experimental: Feline FcRn was isolated, prepared and mutant Fc IgGs were assayed against feline FcRn according to Strietzel et. al., discussed above. Standard PCR was used to amplify feline FcRn-α subunit and β-microglobulin. FcRn-α subunit and β-microglobulin were co-transfected into HEK 293 cells and the FcRn complex was purified by IMAC affinity purification via the c-terminal His tag. FcRn complex was biotin labeled through BirA enzymatic biotinylatoin reaction. KD's were measured by Biacore T200 (GE Healthcare, Pittsburgh, PA, USA) or Biacore 8K (Cytiva, Marlborough, MA, USA) using a SA sensor chip.
FcRn was captured on the surface of the sensor using a modified SA capture method. 10 mM MES; 150 mM NaCl; 0.005% Tween20; 0.5 mg/mL BSA; pH6 was used as capture, method running buffer and titrations. 1×HBS-P, 0.5 mg/mL BSA; pH7.4 was also used for method running buffer and titrations. Fc mutant IgGs were flowed over receptor surfaces and affinity was determined using T200 evaluation software or Biacore Insight Evaluation software. Blank runs containing buffer only were subtracted out from all runs. Flow cells were regenerated using 50 mM Tris pH8 or pH9. Runs were performed at 15° C.

[5] = target: T2, Feline FcRn (complex of FcRn-α subunit …); test: SPR Biacore, FcRn amine-coupled on CM5, pH 7.2; pH 7.2; Table 2 run (FcRn amine-coupled on CM5)
Experimental: as §1, §2

[6] = target: T2, Feline FcRn (complex of FcRn-α subunit …); test: SPR Biacore, biotin-FcRn on SA chip, pH 6
Summary of the method: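 Runs at 15° C used either pH 6 buffer (10 mM MES, 150 mM NaCl, 0.005% Tween20, 0.5 mg/mL BSA) or pH 7.4 buffer (1×HBS-P, 0.5 mg/mL BSA), with Fc mutant IgGs as analytes. Receptor was biotinylated feline FcRn complex (co-expressed in HEK 293) on an SA chip. Affinities from blank-subtracted SPR data.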

[7] = target: T2, Feline FcRn (complex of FcRn-α subunit …); test: SPR Biacore, FcRn amine-coupled on CM5, pH 6
Experimental: as §1, §2

[8] = target: T2, Feline FcRn (complex of FcRn-α subunit …); test: SPR Biacore, FcRn amine-coupled on CM5, pH 7.2
Experimental: as §1, §2

Binder | IC50 (cell based potency assay) [1] | Kd [2] | Kd [3] | Kd [4] | Kd [5] | Kd [6] | Kd [7] | Kd [8]
B1 | 0.036 nM | 0.000582 nM | 2.95 nM | 26 nM | 8630 nM | – | – | –
B2 | – | 0.00132 nM | – | – | – | 2.6 nM | 1.02 nM | 0.524 nM
